# From US20120028912
# T1: HIV-1 Tat protein, wild type
# T1 chain: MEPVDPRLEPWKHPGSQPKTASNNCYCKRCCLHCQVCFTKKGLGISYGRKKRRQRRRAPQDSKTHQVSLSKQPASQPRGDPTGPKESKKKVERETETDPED
# B1: p300/CBP-associated factor (P/CAF), HA-tagged (protein)
# chain: MSEAGGAGPGGCGAGAGAGAGPGALPPQPAALPPAPPQGSPCAAAAGGSGACGPATAVAAAGTAEGPGGGGSARIAVKKAQLRSAPRAKKLEKLGVYSACKAEESCKCNGWKNPNPSPTPPRADLQQIIVSLTESCRSCSHALAAHVSHLENVSEEEMNRLLGIVLDVEYLFTCVHKEEDADTKQVYFYLFKLLRKSILQRGKPVVEGSLEKKPPFEKPSIEQGVNNFVQYKFSHLPAKERQTIVELAKMFLNRINYWHLEAPSQRRLRSPNDDISGYKENYTRWLCYCNVPQFCDSLPRYETTQVFGRTLLRSVFTVMRRQLLEQARQEKDKLPLEKRTLILTHFPKFLSMLEEEVYSQNSPIWDQDFLSASSRTSQLGIQTVINPPPVAGTISYNSTSSSLEQPNAGSSSPACKASSGLEANPGEKRKMTDSHVLEEAKKPRVMGDIPMELINEVMSTITDPAAMLGPETNFLSAHSARDEAARLEERRGVIEFHVVGNSLNQKPNKKILMWLVGLQNVFSHQLPRMPKEYITRLVFDPKHKTLALIKDGRVIGGICFRMFPSQGFTEIVFCAVTSNEQVKGYGTHLMNHLKEYHIKHDILNFLTYADEYAIGYFKKQGFSKEIKIPKTKYVGYIKDYEGATLMGCELNPRIPYTEFSVIIKKQKEIIKKLIERKQAQIRKVYPGLSCFKDGVRQIPIESIPGIRETGWKPSGKEKSKEPRDPDQLYSTLKSILQQVKSHQSAWPFMEPVKRTEAPGYYEVIRFPMDLKTMSERLKNRYYVSKKLFMADLQRVFTNCKEYNAAESEYYKCANILEKFFFSKIKEAGLIDK
# Biological target: T1, HIV-1 Tat protein, wild type
protein,measurement,value
B1,Superinduction of Tat transactivation activity,as much as a 30-fold increase upon P/CAF stimulation
